Data as given in paper PMC10164591, “RNA binding proteins Smaug and Cup induce CCR4–NOT-dependent deadenylation of the nanos mRNA in a reconstituted system”.

Experiments:
His8-MBP-Cup M = target: T1, His8-MBP-Cup M (Drosophila melanogaster, UniProt Q9VMA3 418-770); test: UV crosslinking + Ni-NTA pull-down; 6 M urea wash; UV crosslinking: 16 mM HEPES pH 7.6, 50 mM K acetate, 1 mM Mg acetate, 0.8 mM ATP, 0.24 mg/ml yeast tRNA, 1 mM DTT, 10% glycerol, room temp; EMSA: deadenylation buffer with tRNA (omitted for A70 PABPC), 5% glycerol, 25 C; conditions: protein: recombinant; tags: N-terminal His8-MBP; label: 5'-32P
T1 sequence: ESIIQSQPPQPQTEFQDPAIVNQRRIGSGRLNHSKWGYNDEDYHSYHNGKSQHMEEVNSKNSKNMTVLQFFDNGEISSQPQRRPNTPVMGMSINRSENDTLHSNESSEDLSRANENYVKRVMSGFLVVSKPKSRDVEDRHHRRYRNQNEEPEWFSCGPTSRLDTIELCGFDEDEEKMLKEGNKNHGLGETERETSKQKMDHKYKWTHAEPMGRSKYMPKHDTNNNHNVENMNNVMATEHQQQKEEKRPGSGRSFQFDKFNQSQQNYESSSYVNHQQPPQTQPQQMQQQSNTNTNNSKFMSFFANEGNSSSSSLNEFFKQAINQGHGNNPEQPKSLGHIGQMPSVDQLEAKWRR

His8-MBP-Cup MC = target: T2, His8-MBP-Cup MC (Drosophila melanogaster, UniProt Q9VMA3 418-1117); test: as above; conditions: protein: recombinant; tags: N-terminal His8-MBP; label: 5'-32P
T2 sequence: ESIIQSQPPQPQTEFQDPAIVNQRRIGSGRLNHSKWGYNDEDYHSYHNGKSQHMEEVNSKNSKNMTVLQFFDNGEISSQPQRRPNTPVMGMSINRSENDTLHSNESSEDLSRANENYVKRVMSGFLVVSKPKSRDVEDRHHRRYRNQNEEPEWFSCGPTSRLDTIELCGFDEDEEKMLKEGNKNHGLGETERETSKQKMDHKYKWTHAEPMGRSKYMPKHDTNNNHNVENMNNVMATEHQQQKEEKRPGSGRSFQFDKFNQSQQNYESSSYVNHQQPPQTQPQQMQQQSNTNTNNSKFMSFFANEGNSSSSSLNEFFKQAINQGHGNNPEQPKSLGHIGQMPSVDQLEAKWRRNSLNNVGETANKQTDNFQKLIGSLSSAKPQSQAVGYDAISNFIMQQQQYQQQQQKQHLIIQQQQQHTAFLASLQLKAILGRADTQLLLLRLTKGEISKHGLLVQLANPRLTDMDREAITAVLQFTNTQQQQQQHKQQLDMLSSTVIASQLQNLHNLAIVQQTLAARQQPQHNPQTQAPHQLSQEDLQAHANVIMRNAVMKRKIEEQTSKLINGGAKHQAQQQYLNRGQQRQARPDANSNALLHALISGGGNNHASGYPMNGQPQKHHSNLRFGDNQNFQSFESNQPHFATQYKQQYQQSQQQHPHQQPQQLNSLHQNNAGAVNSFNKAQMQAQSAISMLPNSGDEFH

His8-MBP-Cup full length = target: T3, His8-MBP-Cup full length (Drosophila melanogaster, UniProt Q9VMA3 1-1117); test: as above; conditions: protein: recombinant; tags: N-terminal His8-MBP; label: 5'-32P
T3 sequence: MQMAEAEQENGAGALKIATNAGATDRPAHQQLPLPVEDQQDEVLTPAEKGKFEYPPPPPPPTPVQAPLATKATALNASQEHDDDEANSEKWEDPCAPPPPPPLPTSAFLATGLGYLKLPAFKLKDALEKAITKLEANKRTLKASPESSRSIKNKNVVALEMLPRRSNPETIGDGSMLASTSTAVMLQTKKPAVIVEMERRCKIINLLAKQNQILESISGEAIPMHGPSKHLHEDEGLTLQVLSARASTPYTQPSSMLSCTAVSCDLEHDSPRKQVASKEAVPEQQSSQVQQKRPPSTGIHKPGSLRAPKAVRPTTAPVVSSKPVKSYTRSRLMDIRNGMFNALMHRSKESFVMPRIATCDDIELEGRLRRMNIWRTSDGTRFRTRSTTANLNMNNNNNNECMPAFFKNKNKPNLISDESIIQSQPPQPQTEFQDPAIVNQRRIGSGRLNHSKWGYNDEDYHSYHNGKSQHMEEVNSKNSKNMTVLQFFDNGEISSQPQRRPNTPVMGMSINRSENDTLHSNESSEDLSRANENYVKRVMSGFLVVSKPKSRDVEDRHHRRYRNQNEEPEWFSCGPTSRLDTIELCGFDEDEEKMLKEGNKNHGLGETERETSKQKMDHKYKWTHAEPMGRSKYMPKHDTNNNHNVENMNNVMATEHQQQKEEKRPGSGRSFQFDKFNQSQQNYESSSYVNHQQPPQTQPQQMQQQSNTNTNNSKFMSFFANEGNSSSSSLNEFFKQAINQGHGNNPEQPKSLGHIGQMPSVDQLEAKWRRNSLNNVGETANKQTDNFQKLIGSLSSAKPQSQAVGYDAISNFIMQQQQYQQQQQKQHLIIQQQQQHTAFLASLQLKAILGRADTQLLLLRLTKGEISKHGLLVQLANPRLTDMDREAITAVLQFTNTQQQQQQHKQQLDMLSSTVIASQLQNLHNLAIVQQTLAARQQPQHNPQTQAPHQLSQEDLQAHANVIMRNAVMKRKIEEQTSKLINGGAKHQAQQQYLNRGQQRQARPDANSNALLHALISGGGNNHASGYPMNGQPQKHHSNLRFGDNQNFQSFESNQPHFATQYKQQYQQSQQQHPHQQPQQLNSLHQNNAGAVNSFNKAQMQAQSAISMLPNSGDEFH

His8-MBP-Cup C = target: T4, His8-MBP-Cup C (Drosophila melanogaster, UniProt Q9VMA3 771-1117); test: as above; conditions: protein: recombinant; tags: N-terminal His8-MBP; label: 5'-32P
T4 sequence: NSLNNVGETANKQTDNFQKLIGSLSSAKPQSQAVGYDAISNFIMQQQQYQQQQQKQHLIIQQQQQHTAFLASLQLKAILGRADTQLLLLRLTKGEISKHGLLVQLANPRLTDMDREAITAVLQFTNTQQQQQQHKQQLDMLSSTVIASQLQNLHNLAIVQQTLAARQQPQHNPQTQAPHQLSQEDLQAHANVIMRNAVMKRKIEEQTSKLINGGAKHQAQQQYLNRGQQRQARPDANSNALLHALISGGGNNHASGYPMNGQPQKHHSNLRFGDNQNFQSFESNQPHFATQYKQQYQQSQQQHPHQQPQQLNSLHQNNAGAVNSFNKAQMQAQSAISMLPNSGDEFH

MBP-Cup N = target: T5, MBP-Cup N (Drosophila melanogaster, UniProt Q9VMA3 1-417); test: UV crosslinking; UV crosslinking: 16 mM HEPES pH 7.6, 50 mM K acetate, 1 mM Mg acetate, 0.8 mM ATP, 0.24 mg/ml yeast tRNA, 1 mM DTT, 10% glycerol, room temp; EMSA: deadenylation buffer with tRNA (omitted for A70 PABPC), 5% glycerol, 25 C; conditions: protein: recombinant; tags: N-terminal MBP; label: 5'-32P
T5 sequence: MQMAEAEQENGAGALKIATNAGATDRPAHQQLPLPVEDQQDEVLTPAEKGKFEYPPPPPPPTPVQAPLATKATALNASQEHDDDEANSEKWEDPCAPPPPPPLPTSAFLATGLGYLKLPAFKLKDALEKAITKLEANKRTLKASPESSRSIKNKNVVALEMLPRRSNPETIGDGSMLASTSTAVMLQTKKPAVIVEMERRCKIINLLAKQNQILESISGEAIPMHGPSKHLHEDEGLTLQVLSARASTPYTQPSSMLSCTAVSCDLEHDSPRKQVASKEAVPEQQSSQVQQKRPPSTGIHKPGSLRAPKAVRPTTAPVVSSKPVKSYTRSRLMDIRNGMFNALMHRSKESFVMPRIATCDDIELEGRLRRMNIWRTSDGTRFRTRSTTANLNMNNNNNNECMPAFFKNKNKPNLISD

MBP-Cup M = target: T6, MBP-Cup M (Drosophila melanogaster, UniProt Q9VMA3 418-770); test: as above; conditions: protein: recombinant; tags: N-terminal MBP; label: 5'-32P
T6 sequence: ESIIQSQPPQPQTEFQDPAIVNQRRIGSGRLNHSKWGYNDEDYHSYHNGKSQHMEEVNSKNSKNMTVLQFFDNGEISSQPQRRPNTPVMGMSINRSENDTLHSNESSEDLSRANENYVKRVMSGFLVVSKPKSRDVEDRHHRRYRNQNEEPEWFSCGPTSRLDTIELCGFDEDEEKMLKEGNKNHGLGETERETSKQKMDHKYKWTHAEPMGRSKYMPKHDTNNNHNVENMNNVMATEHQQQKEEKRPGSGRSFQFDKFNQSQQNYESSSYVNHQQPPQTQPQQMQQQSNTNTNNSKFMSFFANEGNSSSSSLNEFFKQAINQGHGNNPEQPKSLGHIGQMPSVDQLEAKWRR

MBP-Cup NM = target: T7, MBP-Cup NM (Drosophila melanogaster, UniProt Q9VMA3 1-770); test: as above; conditions: protein: recombinant; tags: N-terminal MBP; label: 5'-32P
T7 sequence: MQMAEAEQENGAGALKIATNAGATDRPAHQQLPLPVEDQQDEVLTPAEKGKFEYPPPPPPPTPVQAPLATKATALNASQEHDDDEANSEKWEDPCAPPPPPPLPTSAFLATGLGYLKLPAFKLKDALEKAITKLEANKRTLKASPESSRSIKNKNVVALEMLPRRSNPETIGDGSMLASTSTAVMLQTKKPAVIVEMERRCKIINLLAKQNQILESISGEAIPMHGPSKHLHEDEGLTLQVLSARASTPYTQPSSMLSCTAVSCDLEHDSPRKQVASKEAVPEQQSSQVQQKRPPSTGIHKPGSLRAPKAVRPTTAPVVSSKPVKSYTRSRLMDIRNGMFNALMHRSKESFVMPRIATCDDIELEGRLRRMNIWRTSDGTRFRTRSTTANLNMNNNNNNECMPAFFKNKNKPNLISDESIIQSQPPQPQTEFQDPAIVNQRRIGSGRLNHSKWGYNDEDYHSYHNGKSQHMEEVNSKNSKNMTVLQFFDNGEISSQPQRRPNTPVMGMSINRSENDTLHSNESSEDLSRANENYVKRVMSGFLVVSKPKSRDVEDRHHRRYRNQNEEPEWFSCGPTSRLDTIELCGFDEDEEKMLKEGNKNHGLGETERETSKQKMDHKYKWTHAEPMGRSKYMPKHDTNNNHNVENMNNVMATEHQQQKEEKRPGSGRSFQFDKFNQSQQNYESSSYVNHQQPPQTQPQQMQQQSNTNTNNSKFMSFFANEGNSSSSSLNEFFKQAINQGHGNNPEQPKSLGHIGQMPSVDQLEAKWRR

MBP-Cup C = target: T8, MBP-Cup C (Drosophila melanogaster, UniProt Q9VMA3 771-1117); test: as above; conditions: protein: recombinant; tags: N-terminal MBP; label: 5'-32P
T8 sequence: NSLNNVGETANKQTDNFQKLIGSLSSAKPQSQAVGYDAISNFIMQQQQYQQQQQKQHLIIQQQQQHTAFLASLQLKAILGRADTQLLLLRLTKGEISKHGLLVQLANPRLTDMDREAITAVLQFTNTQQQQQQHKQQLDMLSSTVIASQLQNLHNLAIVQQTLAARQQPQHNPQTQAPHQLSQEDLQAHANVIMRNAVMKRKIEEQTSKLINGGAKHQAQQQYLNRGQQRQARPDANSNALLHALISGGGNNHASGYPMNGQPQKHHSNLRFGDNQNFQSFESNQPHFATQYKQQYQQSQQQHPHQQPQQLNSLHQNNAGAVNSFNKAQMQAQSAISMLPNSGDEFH

MBP-Cup MC = target: T9, MBP-Cup MC (Drosophila melanogaster, UniProt Q9VMA3 418-1117); test: as above; conditions: protein: recombinant; tags: N-terminal MBP; label: 5'-32P
T9 sequence: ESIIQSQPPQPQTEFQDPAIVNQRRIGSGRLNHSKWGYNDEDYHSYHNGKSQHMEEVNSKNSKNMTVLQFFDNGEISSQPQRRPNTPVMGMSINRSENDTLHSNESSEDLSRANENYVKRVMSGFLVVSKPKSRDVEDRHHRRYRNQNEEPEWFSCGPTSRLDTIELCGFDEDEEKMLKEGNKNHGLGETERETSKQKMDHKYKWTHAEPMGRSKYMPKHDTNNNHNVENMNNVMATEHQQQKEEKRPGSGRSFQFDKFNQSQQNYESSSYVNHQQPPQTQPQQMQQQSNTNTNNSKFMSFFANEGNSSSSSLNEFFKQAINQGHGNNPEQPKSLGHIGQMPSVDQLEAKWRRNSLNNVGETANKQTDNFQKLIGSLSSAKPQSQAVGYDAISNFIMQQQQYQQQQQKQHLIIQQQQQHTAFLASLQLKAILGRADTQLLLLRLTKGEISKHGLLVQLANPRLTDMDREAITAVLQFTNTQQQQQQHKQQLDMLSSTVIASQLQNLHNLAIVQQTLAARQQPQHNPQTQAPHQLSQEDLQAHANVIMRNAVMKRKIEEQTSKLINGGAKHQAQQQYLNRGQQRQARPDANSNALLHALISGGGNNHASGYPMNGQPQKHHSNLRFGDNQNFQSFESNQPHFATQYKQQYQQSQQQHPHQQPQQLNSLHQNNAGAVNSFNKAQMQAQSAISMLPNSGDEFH

Measured: binding result

GGGUUUAGUGCGCACGUG (ssRNA) [18nt RNA oligonucleotide]
binds: His8-MBP-Cup M | His8-MBP-Cup MC | His8-MBP-Cup full length | His8-MBP-Cup C | MBP-Cup N | MBP-Cup M | MBP-Cup NM | MBP-Cup C | MBP-Cup MC
